Source: patent EP4745153A1, “GLP-1, GIP AND GCG RECEPTOR […] USE THEREOF” (Jiangsu Hengrui Pharmaceuticals Co., Ltd., priority 2023, dated 2025)
Read-outs that look alike come from different tables or passages of the source. Starred links: 1 amine or outer side, 2 acyl side, 3 side chain; linkers in the order of their positions; H or OH if unused. Non-standard residues stand in square brackets, D forms with d. Groups on a side chain read outwards from the residue. No end group written: not given here. *: point of attachment. C20 diacid = O=C(O)CCCCCCCCCCCCCCCCCCC(=O)*; C17 diacid = O=C(O)CCCCCCCCCCCCCCCC(=O)*; γGlu = O=C(O)[C@H](CCC(=O)[*:2])N[*:1]; αMeY = C[C@](N)(Cc1ccc(O)cc1)C(=O)O; αMeK = C[C@](N)(CCCCN)C(=O)O; Iva = CC[C@](C)(N)C(=O)O; AEEA = NCCOCCOCC(=O)O; Aib = CC(C)(N)C(=O)O

T1: human glucose-dependent insulinotropic polypeptide receptor (human, UniProt P48546 22-466)
T1 sequence (looked up): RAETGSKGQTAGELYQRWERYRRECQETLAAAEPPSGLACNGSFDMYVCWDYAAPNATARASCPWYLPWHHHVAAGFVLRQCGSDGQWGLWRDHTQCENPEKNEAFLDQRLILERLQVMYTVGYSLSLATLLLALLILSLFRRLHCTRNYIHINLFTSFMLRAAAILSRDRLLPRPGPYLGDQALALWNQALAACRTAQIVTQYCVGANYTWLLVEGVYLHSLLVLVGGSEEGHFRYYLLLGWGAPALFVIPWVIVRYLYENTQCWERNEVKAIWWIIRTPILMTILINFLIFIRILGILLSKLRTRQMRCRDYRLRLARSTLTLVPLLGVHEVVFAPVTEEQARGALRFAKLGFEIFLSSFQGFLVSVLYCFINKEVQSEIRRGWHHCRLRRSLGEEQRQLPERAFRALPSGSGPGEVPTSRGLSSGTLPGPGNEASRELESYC


Columns and labels:
Experiment in all cases: cell-based or functional assay
[1] = target: T1, human glucose-dependent insulinotropic …
[2] = target: T2, human glucagon-like peptide-1 receptor (human, UniProt P43220 24-463)
human glucagon receptor [3] = target: T3, human glucagon receptor (human, UniProt P47871 26-477)
T3 sequence (P47871 26-477): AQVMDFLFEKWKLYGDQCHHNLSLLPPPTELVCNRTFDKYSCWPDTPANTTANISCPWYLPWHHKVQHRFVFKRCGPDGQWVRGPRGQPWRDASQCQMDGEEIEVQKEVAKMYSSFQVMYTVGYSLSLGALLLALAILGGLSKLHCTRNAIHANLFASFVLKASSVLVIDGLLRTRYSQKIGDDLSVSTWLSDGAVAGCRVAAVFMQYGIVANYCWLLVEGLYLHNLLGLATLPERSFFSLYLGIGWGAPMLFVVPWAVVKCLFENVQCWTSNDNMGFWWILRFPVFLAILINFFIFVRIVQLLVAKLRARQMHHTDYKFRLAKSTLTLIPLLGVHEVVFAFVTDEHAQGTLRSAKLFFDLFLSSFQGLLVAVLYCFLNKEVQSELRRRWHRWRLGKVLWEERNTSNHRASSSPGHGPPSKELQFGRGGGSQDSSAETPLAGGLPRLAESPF

[4] = target: T1, human glucose-dependent insulinotropic …; remark: listed apart in the source
[5] = target: T2, human glucagon-like peptide-1 receptor; remark: listed apart in the source
human glucagon receptor [6] = target: T3, human glucagon receptor; remark: listed apart in the source

Binder | Activity against human GIPR (EC50 nM) [1] | Activity against human GLP-1R (EC50 nM) [2] | Activity against human GCGR (EC50 nM) (human glucagon receptor [3]) | Activity against human GIPR (EC50 nM) [4] | Activity against human GLP-1R (EC50 nM) [5] | Activity against human GCGR (EC50 nM) (human glucagon receptor [6])
H[Aib]HGTFTSDYSKYLEK([AEEA-AEEA-γGlu-C20 diacid])K[Aib]AQEFVEWLLAGGPSSGAPPPS-NH2 (N-terminus assumed; SMILES CC(C)C[C@H](NC(=O)[C@H](CC(C)C)NC(=O)[C@H](Cc1c[nH]c2ccccc12)NC(=O)[C@H](CCC(=O)O)NC(=O)[C@@H](NC(=O)[C@H](Cc1ccccc1)NC(=O)[C@H](CCC(=O)O)NC(=O)[C@H](CCC(N)=O)NC(=O)[C@H](C)NC(=O)C(C)(C)NC(=O)[C@H](CCCCN)NC(=O)[C@H](CCCCNC(=O)COCCOCCNC(=O)COCCOCCNC(=O)CC[C@H](NC(=O)CCCCCCCCCCCCCCCCCCC(=O)O)C(=O)O)NC(=O)[C@H](CCC(=O)O)NC(=O)[C@H](CC(C)C)NC(=O)[C@H](Cc1ccc(O)cc1)NC(=O)[C@H](CCCCN)NC(=O)[C@H](CO)NC(=O)[C@H](Cc1ccc(O)cc1)NC(=O)[C@H](CC(=O)O)NC(=O)[C@H](CO)NC(=O)[C@@H](NC(=O)[C@H](Cc1ccccc1)NC(=O)[C@@H](NC(=O)CNC(=O)[C@H](Cc1c[nH]cn1)NC(=O)C(C)(C)NC(=O)[C@@H](N)Cc1c[nH]cn1)[C@@H](C)O)[C@@H](C)O)C(C)C)C(=O)N[C@@H](C)C(=O)NCC(=O)NCC(=O)N1CCC[C@H]1C(=O)N[C@@H](CO)C(=O)N[C@@H](CO)C(=O)NCC(=O)N[C@@H](C)C(=O)N1CCC[C@H]1C(=O)N1CCC[C@H]1C(=O)N1CCC[C@H]1C(=O)N[C@@H](CO)C(N)=O) [Compound No. 0110] | 0.043 nM | 0.016 nM | 0.044 nM | – | – | –
H[Aib]HGTFTSDYSK[αMeY]LEK([AEEA-AEEA-γGlu-C17 diacid])KAAQEFVEWLLAGGPSSGAPPPS-NH2 (N-terminus assumed; SMILES CC(C)C[C@H](NC(=O)[C@H](CC(C)C)NC(=O)[C@H](Cc1c[nH]c2ccccc12)NC(=O)[C@H](CCC(=O)O)NC(=O)[C@@H](NC(=O)[C@H](Cc1ccccc1)NC(=O)[C@H](CCC(=O)O)NC(=O)[C@H](CCC(N)=O)NC(=O)[C@H](C)NC(=O)[C@H](C)NC(=O)[C@H](CCCCN)NC(=O)[C@H](CCCCNC(=O)COCCOCCNC(=O)COCCOCCNC(=O)CC[C@H](NC(=O)CCCCCCCCCCCCCCCC(=O)O)C(=O)O)NC(=O)[C@H](CCC(=O)O)NC(=O)[C@H](CC(C)C)NC(=O)[C@](C)(Cc1ccc(O)cc1)NC(=O)[C@H](CCCCN)NC(=O)[C@H](CO)NC(=O)[C@H](Cc1ccc(O)cc1)NC(=O)[C@H](CC(=O)O)NC(=O)[C@H](CO)NC(=O)[C@@H](NC(=O)[C@H](Cc1ccccc1)NC(=O)[C@@H](NC(=O)CNC(=O)[C@H](Cc1c[nH]cn1)NC(=O)C(C)(C)NC(=O)[C@@H](N)Cc1c[nH]cn1)[C@@H](C)O)[C@@H](C)O)C(C)C)C(=O)N[C@@H](C)C(=O)NCC(=O)NCC(=O)N1CCC[C@H]1C(=O)N[C@@H](CO)C(=O)N[C@@H](CO)C(=O)NCC(=O)N[C@@H](C)C(=O)N1CCC[C@H]1C(=O)N1CCC[C@H]1C(=O)N1CCC[C@H]1C(=O)N[C@@H](CO)C(N)=O) [Compound No. 0106] | 0.027 nM | 0.03 nM | 0.095 nM | – | – | –
H[Aib]HGTFTSDYS[αMeK]ILEK([AEEA-AEEA-γGlu-C20 diacid])QAA[Iva]EFVEWLLAGGPSSGAPPPS-NH2 [Compound No. 0130] | – | – | – | 0.0005 nM | 0.048 nM | 0.03 nM
Y[Aib]QGTFTSDYS[αMeK]ILEK([AEEA-AEEA-γGlu-C20 diacid])KAA[Iva]EFVEWLLAGGPSSGAPPPS-NH2 [Compound No. 0129] | – | – | – | 0.002 nM | 0.159 nM | 0.067 nM
H[Aib]HGTFTSDYS[αMeK]YLEK([AEEA-AEEA-γGlu-C20 diacid])KAAQEFVEWLLAGGPSSGAPPPS-NH2 (N-terminus assumed; SMILES CC(C)C[C@H](NC(=O)[C@H](CC(C)C)NC(=O)[C@H](Cc1c[nH]c2ccccc12)NC(=O)[C@H](CCC(=O)O)NC(=O)[C@@H](NC(=O)[C@H](Cc1ccccc1)NC(=O)[C@H](CCC(=O)O)NC(=O)[C@H](CCC(N)=O)NC(=O)[C@H](C)NC(=O)[C@H](C)NC(=O)[C@H](CCCCN)NC(=O)[C@H](CCCCNC(=O)COCCOCCNC(=O)COCCOCCNC(=O)CC[C@H](NC(=O)CCCCCCCCCCCCCCCCCCC(=O)O)C(=O)O)NC(=O)[C@H](CCC(=O)O)NC(=O)[C@H](CC(C)C)NC(=O)[C@H](Cc1ccc(O)cc1)NC(=O)[C@](C)(CCCCN)NC(=O)[C@H](CO)NC(=O)[C@H](Cc1ccc(O)cc1)NC(=O)[C@H](CC(=O)O)NC(=O)[C@H](CO)NC(=O)[C@@H](NC(=O)[C@H](Cc1ccccc1)NC(=O)[C@@H](NC(=O)CNC(=O)[C@H](Cc1c[nH]cn1)NC(=O)C(C)(C)NC(=O)[C@@H](N)Cc1c[nH]cn1)[C@@H](C)O)[C@@H](C)O)C(C)C)C(=O)N[C@@H](C)C(=O)NCC(=O)NCC(=O)N1CCC[C@H]1C(=O)N[C@@H](CO)C(=O)N[C@@H](CO)C(=O)NCC(=O)N[C@@H](C)C(=O)N1CCC[C@H]1C(=O)N1CCC[C@H]1C(=O)N1CCC[C@H]1C(=O)N[C@@H](CO)C(N)=O) [Compound No. 0104] | 0.016 nM | 0.01 nM | 0.037 nM | – | – | –
H[Aib]HGTFTSDYS[αMeK]LLEK([AEEA-AEEA-γGlu-C20 diacid])KAA[Iva]EFVEWLIEGGPSSGAPPPS-NH2 (N-terminus assumed; SMILES CC[C@H](C)[C@H](NC(=O)[C@H](CC(C)C)NC(=O)[C@H](Cc1c[nH]c2ccccc12)NC(=O)[C@H](CCC(=O)O)NC(=O)[C@@H](NC(=O)[C@H](Cc1ccccc1)NC(=O)[C@H](CCC(=O)O)NC(=O)[C@](C)(CC)NC(=O)[C@H](C)NC(=O)[C@H](C)NC(=O)[C@H](CCCCN)NC(=O)[C@H](CCCCNC(=O)COCCOCCNC(=O)COCCOCCNC(=O)CC[C@H](NC(=O)CCCCCCCCCCCCCCCCCCC(=O)O)C(=O)O)NC(=O)[C@H](CCC(=O)O)NC(=O)[C@H](CC(C)C)NC(=O)[C@H](CC(C)C)NC(=O)[C@](C)(CCCCN)NC(=O)[C@H](CO)NC(=O)[C@H](Cc1ccc(O)cc1)NC(=O)[C@H](CC(=O)O)NC(=O)[C@H](CO)NC(=O)[C@@H](NC(=O)[C@H](Cc1ccccc1)NC(=O)[C@@H](NC(=O)CNC(=O)[C@H](Cc1c[nH]cn1)NC(=O)C(C)(C)NC(=O)[C@@H](N)Cc1c[nH]cn1)[C@@H](C)O)[C@@H](C)O)C(C)C)C(=O)N[C@@H](CCC(=O)O)C(=O)NCC(=O)NCC(=O)N1CCC[C@H]1C(=O)N[C@@H](CO)C(=O)N[C@@H](CO)C(=O)NCC(=O)N[C@@H](C)C(=O)N1CCC[C@H]1C(=O)N1CCC[C@H]1C(=O)N1CCC[C@H]1C(=O)N[C@@H](CO)C(N)=O) [Compound No. 0131] | – | – | – | 0.0007 nM | 0.02 nM | 0.026 nM
H[Aib]HGTFTSDYS[αMeK]ILEK([AEEA-AEEA-γGlu-C20 diacid])KAA[Iva]EFVEWLIEGGPSSGAPPPS-NH2 (N-terminus assumed; SMILES CC[C@H](C)[C@H](NC(=O)[C@H](CC(C)C)NC(=O)[C@H](Cc1c[nH]c2ccccc12)NC(=O)[C@H](CCC(=O)O)NC(=O)[C@@H](NC(=O)[C@H](Cc1ccccc1)NC(=O)[C@H](CCC(=O)O)NC(=O)[C@](C)(CC)NC(=O)[C@H](C)NC(=O)[C@H](C)NC(=O)[C@H](CCCCN)NC(=O)[C@H](CCCCNC(=O)COCCOCCNC(=O)COCCOCCNC(=O)CC[C@H](NC(=O)CCCCCCCCCCCCCCCCCCC(=O)O)C(=O)O)NC(=O)[C@H](CCC(=O)O)NC(=O)[C@H](CC(C)C)NC(=O)[C@@H](NC(=O)[C@](C)(CCCCN)NC(=O)[C@H](CO)NC(=O)[C@H](Cc1ccc(O)cc1)NC(=O)[C@H](CC(=O)O)NC(=O)[C@H](CO)NC(=O)[C@@H](NC(=O)[C@H](Cc1ccccc1)NC(=O)[C@@H](NC(=O)CNC(=O)[C@H](Cc1c[nH]cn1)NC(=O)C(C)(C)NC(=O)[C@@H](N)Cc1c[nH]cn1)[C@@H](C)O)[C@@H](C)O)[C@@H](C)CC)C(C)C)C(=O)N[C@@H](CCC(=O)O)C(=O)NCC(=O)NCC(=O)N1CCC[C@H]1C(=O)N[C@@H](CO)C(=O)N[C@@H](CO)C(=O)NCC(=O)N[C@@H](C)C(=O)N1CCC[C@H]1C(=O)N1CCC[C@H]1C(=O)N1CCC[C@H]1C(=O)N[C@@H](CO)C(N)=O) [Compound No. 0132] | – | – | – | 0.001 nM | 0.024 nM | 0.03 nM
Y[Aib]QGTFTSDYS[αMeK]LLEK([AEEA-AEEA-γGlu-C20 diacid])KAA[Iva]EFVEWLLAGGPSSGAPPPS-NH2 [Compound No. 0127] | – | – | – | 0.0007 nM | 0.132 nM | 0.037 nM
